Test system: (D)FPR-PNA

## bovine thrombin (from Sigma)
  Kcat/KM of substrate hydrolysis: thrombin: Kcat/KM=2.20×10^7 M^-1 S^-1
